Entries after “also recorded” stand apart in the source; their conditions may differ.
How the values were obtained:
AKT1 = AKT1 mRNA and protein knockdown in breast cancer cell lines; type: cell-based, human; details: basal-A, luminal, basal-B lines, fibroblasts
Method: (§1) For uptake and silencing treatment, cells were plated at low density (10,000 cells/well in 96-well plates) and treated immediately. All AsiC and siRNA treatments were performed in either OptiMEM or WIT medium. Cell viability was assessed by CellTiter-Glo (Promega) or by Trypan-Blue staining in 96-well plates.
For flow cytometry, cells were stained as previously described (Yu, F. et al (2007). let-7 Regulates Self Renewal and Tumorigenicity of Breast Cancer Cells. Cell 131, 1109-1123. ), briefly, direct immunostaining of EpCAM and AKT1 was performed using 1:50 dilutions of hAb for 30-60 minutes at 4° C. (BioLegend/BD). Cells were stained in PBS containing 0.5% FCS, 1 mM EDTA, and 25 mM HEPES. Samples were washed twice in the same buffer. Data was acquired using FACS-Canto II (BD Biosciences). Analyses were performed in triplicate and 10,000 gated events/sample were counted. All data analysis was performed using FlowJo (Treestar Inc.).
qRT-PCR analysis was performed as described (Petrocca, F., et al. (2008). E2F1-regulated microRNAs impair TGFbeta-dependent cell-cycle arrest and apoptosis in gastric cancer. Cancer Cell 13, 272-286). Briefly, total RNA was extracted with Trizol (Invitrogen) and cDNA prepared from 1000 ng total RNA using Thermoscript RT kit (Invitrogen) as per the […] (Applied Biosystems) and a BioRad C1000 Thermal Cycler (Biorad). Relative CT values were normalized to GAPDH and converted to a linear scale.

[1] = Stability in human serum (denaturing PAGE, densitometry); type: in vitro ADME; details: 2'-fluoropyrimidine AsiC
Method: Aliquots were removed at regular intervals and resuspended in gel loading buffer and stored at −80° C. before electrophoresis on denaturing PAGE gels. The average intensity (+S.E.M.) of bands from 2 independent experiments quantified by densitometry after staining is shown.
EpCAM-AsiC targeting GFP synthesized using 2′-fluoro-pyrimidines, chemically-stabilized 21-mer cholesterol-conjugated GFP-siRNAs (chol-siRNA), and unmodified 21-mer GFP-siRNA, each in 100 ul PBS, which were added to 100 μl of human or mouse serum. At regular intervals, 20 μL was removed, and resuspended in gel loading buffer and frozen at −80° C. before being electrophoresed on a denaturing PAGE gel. FIG. 30A depicts representative PAGE gels and FIG. 30B depicts graphs of the average intensity (+S.E.M.) of bands from two independent experiments analyzed by densitometry. Both the stabilized cholesterol-conjugated siRNA and the EpCAM-AsiC are stable over the 36 h of the experiment.

[2] = test system: basal-A, luminal and basal-B breast cancer cell lines; assay: Cell proliferation/viability by CellTiter-Glo in 10 breast cancer cell lines; type: cell-based, human
From the text: To explore whether EpCAM-AsiCs could be used as anti-tumor agents in breast cancer, we examined by CellTiterGlo assay the effect of AsiCs directed against PLK1, a kinase required for mitosis, on survival of 10 breast cancer cell lines that included 5 basal-A TNBCs, 2 luminal cell lines, and 3 basal-B TNBCs. […] The anti-proliferative effect strongly correlated with EpCAM expression (FIG. 2B). The reduction in viable EpCAM+ cells after knockdown was due to induction of apoptosis, assessed by annexin V-propidium iodide staining and caspase activation (data not shown). To determine whether ligation of the EpCAM aptamer contributed to the anti-proliferative effect of the EpCAM-AsiC, we compared survival of cells that were treated with the PLK1 EpCAM-AsiC with cells treated with the aptamer on its own (FIG. 2C). […] Thus the PLK1 EpCAM-AsiC asserts its specific anti-tumor effect on EpCAM+ breast cancer cells by gene knockdown.
as §1

[3] = test system: basal-B TNBC cells (MB436, MB231); assay: Tumor initiation by ex vivo treated EpCAM− basal-B cells in nude mice; details: cells treated ex vivo overnight, then implanted; listed as PLK1 EpCAM-AsiCs
From the text: EpCAM was chosen for targeting in part because EpCAM marks T-ICs and metastasis-initiating cells (M-IC).^20,22,26,27,31 To investigate whether EpCAM-AsiCs inhibit T-ICs, we compared colony and mammosphere formation (T-IC functional surrogate assays) after mock treatment, treatment with paclitaxel or with EpCAM-AsiCs against eGFP or PLK1. […] T-IC inhibition was specific, since eGFP AsiCs had no effect. […] To evaluate the effect of EpCAM-AsiCs on tumor initiation, EpCAM+MB468 cells stably expressing luciferase were treated overnight with medium or PLK1 or eGFP EpCAM-AsiCs and equal numbers of viable cells were then implanted sc in nude mice. […] Thus PLK1 EpCAM-AsiCs inhibit in vitro T-IC assays and tumor initiation selectively for EpCAM+ breast cancers.
EpCAM-AsiCs inhibit T-ICs of EpCAM+ tumors. EpCAM was chosen for targeting partly because EpCAM marks T-ICs and metastasis-initiating cells (M-IC). To investigate whether EpCAM-AsiCs inhibit T-ICs, we compared colony and mammosphere formation (T-IC functional surrogates) after mock treatment, treatment with paclitaxel or with EpCAM-AsiCs against eGFP or PLK1. […] To evaluate EpCAM-AsiC's effect on tumor initiation, viable luc+ EpCAM+ MB468 and EpCAM− MB231 cells, treated overnight with medium or PLK1 or GFP EpCAM-AsiCs, were implanted sc in nude mice. […] Thus EpCAM-AsiCs inhibit tumor initiation in EpCAM+ breast cancers.

[4] = listed as EpCAM-AsiC targeting PLK1
[5] = listed as EpCAM-AsiCs targeting PLK1

Row | Molecule | AKT1 mRNA and protein knockdown across cell lines (AKT1) | T1/2 in human serum [1] | cell proliferation/viability, basal-A and luminal (EpCAM+) lines [2, 4] | cell proliferation/viability, basal-B lines [2, 4] | cell proliferation/viability, basal-A and luminal (EpCAM+) lines [2, 5] | cell proliferation/viability, basal-B lines [2, 5] | tumor initiation, EpCAM− basal-B cells [3]
1 | EpCAM-AsiC: EpCAM aptamer-siRNA chimera, siRNA cargo not specified at the place; 2'-fluoropyrimidines, 3'-dTdT (nucleic acid, DNA at T, 2'-fluoro at CU, RNA at AG, backbone not given here; further chemistry not fully specified, EpCAM aptamer-siRNA chimera, siRNA cargo not specified at the place; 2'-fluoropyrimidines, 3'-dTdT) sense: GCGACUGGUUACCCGGUCGUUUUGAAGAAGAUCACCCUCCUUATT antisense: UAAGGAGGGUGAUCUUCUUCATT | uniform and selective for EpCAM+ cells | > 36 h | – | – | – | – | –
2 | PLK1 EpCAM-AsiC: EpCAM aptamer linked by U-U-U to PLK1 siRNA sense strand (SEQ ID NO: 1), annealed to antisense strand (SEQ ID NO: 2) (nucleic acid, DNA at T, 2'-fluoro at CU, RNA at AG, backbone not given here; EpCAM aptamer fused to sense strand) sense: GCGACUGGUUACCCGGUCGUUUUGAAGAAGAUCACCCUCCUUATT antisense: UAAGGAGGGUGAUCUUCUUCATT | – | – | displayed a decrease in cell viability; also recorded: decreased cell proliferation in both basal A and luminal cell lines; also recorded: suppressed cell viability in basal A and luminal cell lines | having no effect on basal B cells | decreased cell proliferation | did not inhibit basal-B cells | had no effect on basal-B TNBC tumor initiation; also recorded: only in EpCAM+ tumors

Reference: patent US11180762B2, “Methods and compositions for the treatment of cancer” (CHILDREN'S MEDICAL CENTER CORPORATION, priority 2014, dated 2021)
